Source: US6274553A, “Method for stabilizing peptides and freeze-dried medicinal compositions containing peptides obtained by using the method” (Japan Energy Corporation, priority 1997, dated 2001)

What was measured:
Format in all cases: physicochemical
[1] = Amount of isomers in lyophilized HV1C3 stored at 60° C., saccharose/mannitol (Experiment Example 5); conditions: pH 5.5, 5 mM tartaric acid
Procedure: In the same manner as in Experiment Example 1, hirudin variant HV1C3, purified saccharose, and mannitol were dissolved in purified water to a concentration of 6 mg/ml (0.86 mM) of hirudin variant HV1C3 and concentrations of purified saccharose and mannitol respectively shown in Table 6. The solution was adjusted to pH 5.5 using 5 mM tartaric acid to obtain a peptide solution. The peptide solutions for which the pH was adjusted and the peptide solution before pH adjustment were filtered through a 0.22 μm membrane filter. The filtrates were filled into 6 ml vials in the amount of 1 ml for each vial and lyophilized.
The lyophilized samples were stored in an incubator at 60° C. and removed from the incubator after 4 and 8 weeks, respectively. […] was added to each vial removed. Solutions further diluted 50-fold were subjected to liquid chromatography to measure a peak area percentage of isomers other than the hirudin variant HV1C3.

[2] = Storage stability of lyophilized HV1C3 at 60° C., pH adjusting agents (Experiment Example 2); conditions: saccharose, mannitol
Procedure: Hirudin variant HV1C3, purified saccharose, and mannitol were dissolved in purified water to a final concentration of 6 mg/ml (0.86 mM), 1.6 mg/ml (4.7 mM), and 10 mg/ml (55 mM), respectively. The resulting solution was divided into five equal portions. Four of these portions were adjusted to pH 5.5 with the addition of 30 mM of acetic acid, tartaric acid, citric acid, or phosphoric acid. The peptide solutions for which the pH was thus adjusted and the peptide solution without pH adjustment were filtered through a 0.22 μm membrane filter. The filtrates were filled into 6 ml vials in the amount of 1 ml for each vial. 50 such vials were prepared for each pH of the solution, 250 vials in total. All these 250 vials were lyophilized.
The lyophilized samples were stored in an incubator at 60° C. and removed from the incubator after 1, 2, 3, 4, 5, 6, 7, and 8 weeks, respectively. 1 ml of purified water was added to each vial removed. Solutions further diluted 50-fold were used to measure the amount (percentage) of the hirudin variant HV1C3 remaining in the lyophilized sample in the same manner as in Experiment Example 1.

[3] = Storage stability of lyophilized HV1C3 at 50° C., liquid chromatography peak area (Experiment Example 1); conditions: glycine, mannitol
Procedure: Hirudin variant HV1C3 having the amino acid sequence shown by Sequence NO. 1 in the Sequence Table, glycine, and mannitol were dissolved in purified water to a final concentration of 6 mg/ml (0.86 mM), 6.7 mg/ml (89 mM), and 33.5 mg/ml (184 mM), respectively. The resulting solution was divided into six equal portions. These portions were adjusted to the pH shown in Table 1 with the addition of 30 mM of tartaric acid, phosphoric acid, or Tris buffer solution. The peptide solutions for which the pH was thus adjusted filtered through a 0.22 μm membrane filter. The filtrates were charged into 6 ml vials in the amount of 1 ml for each vial. 50 such vials were prepared for each pH of the solution, totaling 300 vials. All these 300 vials were lyophilized.
The lyophilized samples were stored in an incubator at 50° C. and removed from the incubator after 1, 2, 4, 6, 8 weeks, respectively. 1 ml of purified water was added to each vial removed. Solutions further diluted 50-fold were subjected to liquid chromatography to measure a peak area percentage of hirudin variant HV1C3 under the conditions shown in Table 2. The amount (percentage) of the hirudin variant HV1C3 remaining in the lyophilized sample, after having been stored in the incubator, compound with the amount of the hirudin variant HV1C3 contained at the beginning of the storage was determined.

[4] = no saccharose, mannitol 10 mg/ml
[5] = purified saccharose 1.6 mg/ml, mannitol 10 mg/ml
[6] = purified saccharose 1.6 mg/ml, no mannitol

B1: hirudin variant HV1C3: Hirudin variant having the amino acid sequence shown by Sequence No. 1 (JP Laid-open No. 173798/1992) (protein)
chain: VVYTDCTESGQNLCLCEGSNVCGQGNKCILGSDGEKNQCVTGEGTPKPQSHNQGDFEPIPEDAYDE
In the case of B1, the “The amount of isomers (%) 4 weeks” value [1, 4] is reported as 6.93%, the “The amount of isomers (%) 8 weeks” value [1, 4] is reported as 7.99% and the “The amount of isomers (%) 4 weeks” value ([1]; no saccharose, no mannitol) is reported as 5.72%. For the same molecule, the “The amount of isomers (%) 8 weeks” value ([1]; no saccharose, no mannitol) was 6.13%, the “The amount of isomers (%) 4 weeks” value [1, 5] was 7.23% and the “The amount of isomers (%) 8 weeks” value [1, 5] was 8.58%. The “The amount of isomers (%) 4 weeks” value [1, 6] was 4.90%, the “The amount of isomers (%) 8 weeks” value [1, 6] was 5.00% and the “Remaining peptide (%) 1 wk” value ([2]; pH 5.5, acetic acid 30 mM) was 98.3%. The “Remaining peptide (%) 2 wks” value ([2]; pH 5.5, acetic acid 30 mM) was 95.6%, the “Remaining peptide (%) 3 wks” value ([2]; pH 5.5, acetic acid 30 mM) was 94.2% and the “Remaining peptide (%) 4 wks” value ([2]; pH 5.5, acetic acid 30 mM) was 93.3%. The “Remaining peptide (%) 5 wks” value ([2]; pH 5.5, acetic acid 30 mM) was 92.0%, the “Remaining peptide (%) 6 wks” value ([2]; pH 5.5, acetic acid 30 mM) was 91.9% and the “Remaining peptide (%) 7 wks” value ([2]; pH 5.5, acetic acid 30 mM) was 91.4%. For the same molecule, the “Remaining peptide (%) 8 wks” value ([2]; pH 5.5, acetic acid 30 mM) was 90.6%, the “Remaining peptide (%) 1 wk” value ([2]; pH 5.5, citric acid 30 mM) was 97.4% and the “Remaining peptide (%) 2 wks” value ([2]; pH 5.5, citric acid 30 mM) was 95.8%. The “Remaining peptide (%) 3 wks” value ([2]; pH 5.5, citric acid 30 mM) was 94.4%, the “Remaining peptide (%) 4 wks” value ([2]; pH 5.5, citric acid 30 mM) was 93.3% and the “Remaining peptide (%) 5 wks” value ([2]; pH 5.5, citric acid 30 mM) was 92.4%. For the same molecule, the “Remaining peptide (%) 6 wks” value ([2]; pH 5.5, citric acid 30 mM) was 91.6%, the “Remaining peptide (%) 7 wks” value ([2]; pH 5.5, citric acid 30 mM) was 90.8% and the “Remaining peptide (%) 8 wks” value ([2]; pH 5.5, citric acid 30 mM) was 89.8%. The “Remaining peptide (%) 1 wk” value ([2]; pH 5.5, phosphoric acid 30 mM) was 77.9%, the “Remaining peptide (%) 2 wks” value ([2]; pH 5.5, phosphoric acid 30 mM) was 66.6% and the “Remaining peptide (%) 3 wks” value ([2]; pH 5.5, phosphoric acid 30 mM) was 61.4%. For the same molecule, the “Remaining peptide (%) 4 wks” value ([2]; pH 5.5, phosphoric acid 30 mM) was 58.1%, the “Remaining peptide (%) 5 wks” value ([2]; pH 5.5, phosphoric acid 30 mM) was 57.3% and the “Remaining peptide (%) 6 wks” value ([2]; pH 5.5, phosphoric acid 30 mM) was 57.6%. The “Remaining peptide (%) 1 wk” value ([2]; pH 5.5, tartaric acid 30 mM) was 98.4%, the “Remaining peptide (%) 2 wks” value ([2]; pH 5.5, tartaric acid 30 mM) was 97.6% and the “Remaining peptide (%) 3 wks” value ([2]; pH 5.5, tartaric acid 30 mM) was 95.9%. The “Remaining peptide (%) 4 wks” value ([2]; pH 5.5, tartaric acid 30 mM) was 95.2%, the “Remaining peptide (%) 5 wks” value ([2]; pH 5.5, tartaric acid 30 mM) was 92.4% and the “Remaining peptide (%) 6 wks” value ([2]; pH 5.5, tartaric acid 30 mM) was 92.2%. The “Remaining peptide (%) 7 wks” value ([2]; pH 5.5, tartaric acid 30 mM) was 91.9%, the “Remaining peptide (%) 8 wks” value ([2]; pH 5.5, tartaric acid 30 mM) was 90.6% and the “Remaining peptide (%) 1 wk” value ([2]; without pH adjustment) was 96.9%. For the same molecule, the “Remaining peptide (%) 2 wks” value ([2]; without pH adjustment) was 94.2%, the “Remaining peptide (%) 3 wks” value ([2]; without pH adjustment) was 92.3% and the “Remaining peptide (%) 4 wks” value ([2]; without pH adjustment) was 90.9%. For the same molecule, the “Remaining peptide (%) 5 wks” value ([2]; without pH adjustment) was 89.9%, the “Remaining peptide (%) 6 wks” value ([2]; without pH adjustment) was 88.2% and the “Remaining peptide (%) 7 wks” value ([2]; without pH adjustment) was 87.2%. The “Remaining peptide (%) 8 wks” value ([2]; without pH adjustment) was 86.1%, the “Remaining peptide (%) 1 wk” value ([3]; pH 4.5, tartaric acid 30 mM) was 98.0% and the “Remaining peptide (%) 2 wks” value ([3]; pH 4.5, tartaric acid 30 mM) was 97.7%. The “Remaining peptide (%) 4 wks” value ([3]; pH 4.5, tartaric acid 30 mM) was 95.4%, the “Remaining peptide (%) 6 wks” value ([3]; pH 4.5, tartaric acid 30 mM) was 94.7% and the “Remaining peptide (%) 8 wks” value ([3]; pH 4.5, tartaric acid 30 mM) was 93.4%. The “Remaining peptide (%) 1 wk” value ([3]; pH 5.5, tartaric acid 30 mM) was 98.6%, the “Remaining peptide (%) 2 wks” value ([3]; pH 5.5, tartaric acid 30 mM) was 98.7% and the “Remaining peptide (%) 4 wks” value ([3]; pH 5.5, tartaric acid 30 mM) was 97.5%. The “Remaining peptide (%) 6 wks” value ([3]; pH 5.5, tartaric acid 30 mM) was 96.5%, the “Remaining peptide (%) 8 wks” value ([3]; pH 5.5, tartaric acid 30 mM) was 97.0% and the “Remaining peptide (%) 1 wk” value ([3]; pH 6.0, phosphoric acid 30 mM) was 98.4%. The “Remaining peptide (%) 2 wks” value ([3]; pH 6.0, phosphoric acid 30 mM) was 96.4%, the “Remaining peptide (%) 4 wks” value ([3]; pH 6.0, phosphoric acid 30 mM) was 95.1% and the “Remaining peptide (%) 6 wks” value ([3]; pH 6.0, phosphoric acid 30 mM) was 94.5%. The “Remaining peptide (%) 8 wks” value ([3]; pH 6.0, phosphoric acid 30 mM) was 93.6%, the “Remaining peptide (%) 1 wk” value ([3]; pH 7.0, Tris buffer 30 mM) was 95.7% and the “Remaining peptide (%) 2 wks” value ([3]; pH 7.0, Tris buffer 30 mM) was 92.0%. The “Remaining peptide (%) 4 wks” value ([3]; pH 7.0, Tris buffer 30 mM) was 86.8%, the “Remaining peptide (%) 6 wks” value ([3]; pH 7.0, Tris buffer 30 mM) was 72.0% and the “Remaining peptide (%) 8 wks” value ([3]; pH 7.0, Tris buffer 30 mM) was 70.3%. For the same molecule, the “Remaining peptide (%) 1 wk” value ([3]; pH 7.0, phosphoric acid 30 mM) was 99.0%, the “Remaining peptide (%) 2 wks” value ([3]; pH 7.0, phosphoric acid 30 mM) was 97.3% and the “Remaining peptide (%) 4 wks” value ([3]; pH 7.0, phosphoric acid 30 mM) was 93.3%. The “Remaining peptide (%) 6 wks” value ([3]; pH 7.0, phosphoric acid 30 mM) was 92.7%, the “Remaining peptide (%) 8 wks” value ([3]; pH 7.0, phosphoric acid 30 mM) was 90.0% and the “Remaining peptide (%) 1 wk” value ([3]; pH 8.0, Tris buffer 30 mM) was 81.9%. For the same molecule, the “Remaining peptide (%) 2 wks” value ([3]; pH 8.0, Tris buffer 30 mM) was 58.0%.
